From paper PMC10690100 (Molecular Cancer Therapeutics, 2023) come the findings set out here.

For assay [1], the target named is recombinant human integrin alpha-v/beta-1 (Homo sapiens, UniProt P06756;P05556). The assay is described as follows: ELISA. On the technique in general: ELISA stands for enzyme-linked immunosorbent assay.
The target in assay [2] is recombinant human integrin alpha-v/beta-8 (Homo sapiens, UniProt P06756;P26012). The assay is described as follows: ELISA.
Assay [3] concerns the target recombinant human integrin alpha-v/beta-5 (Homo sapiens, UniProt P06756;P18084). In words: ELISA.
Assay [4] has as its target recombinant human integrin alpha-v/beta-3 (Homo sapiens, UniProt P06756;P05106). The assay is described as follows: ELISA.
Assay [5] concerns the target recombinant human integrin alpha-v/beta-6 (Homo sapiens, UniProt P06756;P18564). In words: ELISA.
In assay [6] the target is human integrin beta-6 on 293F:hu beta-6 transfected cells (Homo sapiens, UniProt P06756;P18564). In words: flow cytometry on cells. In general terms: Flow cytometry measures light scatter and fluorescence of single cells or particles in a stream.

Chain of recombinant human integrin alpha-v/beta-6 (P06756 31-1048, chain 1 of 2): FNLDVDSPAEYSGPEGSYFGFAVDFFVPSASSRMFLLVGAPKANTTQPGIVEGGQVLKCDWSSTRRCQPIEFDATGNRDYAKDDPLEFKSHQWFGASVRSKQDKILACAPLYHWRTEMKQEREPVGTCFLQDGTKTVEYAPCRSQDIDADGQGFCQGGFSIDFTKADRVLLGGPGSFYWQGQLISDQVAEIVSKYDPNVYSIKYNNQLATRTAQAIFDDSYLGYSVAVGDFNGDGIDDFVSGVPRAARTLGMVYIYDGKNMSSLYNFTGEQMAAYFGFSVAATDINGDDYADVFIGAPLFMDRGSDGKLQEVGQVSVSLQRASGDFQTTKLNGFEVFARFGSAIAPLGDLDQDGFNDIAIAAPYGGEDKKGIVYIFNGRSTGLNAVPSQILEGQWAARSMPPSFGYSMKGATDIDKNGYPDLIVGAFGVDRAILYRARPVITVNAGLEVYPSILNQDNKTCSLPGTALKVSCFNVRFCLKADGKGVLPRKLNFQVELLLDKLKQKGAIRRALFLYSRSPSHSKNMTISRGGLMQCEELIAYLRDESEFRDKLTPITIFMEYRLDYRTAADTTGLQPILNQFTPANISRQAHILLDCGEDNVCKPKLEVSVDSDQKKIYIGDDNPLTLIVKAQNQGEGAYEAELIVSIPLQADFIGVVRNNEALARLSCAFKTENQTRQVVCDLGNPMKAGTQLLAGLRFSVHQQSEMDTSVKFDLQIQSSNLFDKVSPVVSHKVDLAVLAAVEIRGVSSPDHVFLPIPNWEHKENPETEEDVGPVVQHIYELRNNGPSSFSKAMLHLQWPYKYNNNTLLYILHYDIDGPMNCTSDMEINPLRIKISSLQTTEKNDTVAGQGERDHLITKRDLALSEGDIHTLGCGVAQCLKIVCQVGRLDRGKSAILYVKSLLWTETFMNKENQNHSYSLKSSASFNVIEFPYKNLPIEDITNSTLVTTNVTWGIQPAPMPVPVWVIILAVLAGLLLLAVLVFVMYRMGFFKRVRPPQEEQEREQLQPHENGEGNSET
Chain of recombinant human integrin alpha-v/beta-6 (P18564 22-709, chain 2 of 2): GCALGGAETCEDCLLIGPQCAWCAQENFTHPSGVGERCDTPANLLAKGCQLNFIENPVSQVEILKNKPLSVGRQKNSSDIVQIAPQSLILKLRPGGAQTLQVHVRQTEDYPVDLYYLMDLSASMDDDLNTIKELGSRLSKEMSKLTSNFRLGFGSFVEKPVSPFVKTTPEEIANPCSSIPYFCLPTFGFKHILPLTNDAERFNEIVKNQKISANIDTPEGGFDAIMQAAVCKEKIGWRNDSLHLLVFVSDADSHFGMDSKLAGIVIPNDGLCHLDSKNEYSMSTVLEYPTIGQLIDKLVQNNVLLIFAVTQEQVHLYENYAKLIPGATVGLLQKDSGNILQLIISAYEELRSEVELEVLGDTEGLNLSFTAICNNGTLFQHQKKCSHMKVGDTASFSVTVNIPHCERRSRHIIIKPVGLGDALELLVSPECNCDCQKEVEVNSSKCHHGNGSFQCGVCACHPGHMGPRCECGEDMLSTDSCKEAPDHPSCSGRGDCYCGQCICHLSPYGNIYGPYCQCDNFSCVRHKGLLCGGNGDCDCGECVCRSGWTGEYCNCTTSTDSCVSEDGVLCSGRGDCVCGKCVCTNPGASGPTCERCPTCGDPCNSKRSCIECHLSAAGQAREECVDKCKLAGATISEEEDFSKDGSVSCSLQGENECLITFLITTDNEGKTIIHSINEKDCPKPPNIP
Chain of recombinant human integrin alpha-v/beta-8 (P06756 31-1048, chain 1 of 2): as the sequence (P06756 31-1048, chain 1 of 2) above
Chain of recombinant human integrin alpha-v/beta-8 (P26012 43-684, chain 2 of 2): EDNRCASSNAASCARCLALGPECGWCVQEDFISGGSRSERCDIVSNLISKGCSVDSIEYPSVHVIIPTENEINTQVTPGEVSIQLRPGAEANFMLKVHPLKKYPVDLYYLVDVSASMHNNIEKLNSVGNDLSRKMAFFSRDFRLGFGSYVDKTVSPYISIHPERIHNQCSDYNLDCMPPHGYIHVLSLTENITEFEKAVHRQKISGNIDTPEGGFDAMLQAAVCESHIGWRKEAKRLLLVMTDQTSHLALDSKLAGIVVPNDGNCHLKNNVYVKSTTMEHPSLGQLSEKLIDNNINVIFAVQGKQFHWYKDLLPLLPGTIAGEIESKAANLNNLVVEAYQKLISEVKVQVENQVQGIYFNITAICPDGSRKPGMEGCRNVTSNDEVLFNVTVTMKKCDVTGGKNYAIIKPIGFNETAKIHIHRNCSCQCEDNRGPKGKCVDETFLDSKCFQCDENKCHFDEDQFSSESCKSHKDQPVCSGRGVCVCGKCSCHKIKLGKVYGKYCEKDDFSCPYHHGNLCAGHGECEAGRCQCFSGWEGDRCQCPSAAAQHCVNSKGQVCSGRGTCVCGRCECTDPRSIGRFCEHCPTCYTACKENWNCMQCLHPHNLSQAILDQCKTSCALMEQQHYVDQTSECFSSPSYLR
Chain of recombinant human integrin alpha-v/beta-1 (P06756 31-1048, chain 1 of 2): as the sequence (P06756 31-1048, chain 1 of 2) above
Chain of recombinant human integrin alpha-v/beta-1 (P05556 21-728, chain 2 of 2): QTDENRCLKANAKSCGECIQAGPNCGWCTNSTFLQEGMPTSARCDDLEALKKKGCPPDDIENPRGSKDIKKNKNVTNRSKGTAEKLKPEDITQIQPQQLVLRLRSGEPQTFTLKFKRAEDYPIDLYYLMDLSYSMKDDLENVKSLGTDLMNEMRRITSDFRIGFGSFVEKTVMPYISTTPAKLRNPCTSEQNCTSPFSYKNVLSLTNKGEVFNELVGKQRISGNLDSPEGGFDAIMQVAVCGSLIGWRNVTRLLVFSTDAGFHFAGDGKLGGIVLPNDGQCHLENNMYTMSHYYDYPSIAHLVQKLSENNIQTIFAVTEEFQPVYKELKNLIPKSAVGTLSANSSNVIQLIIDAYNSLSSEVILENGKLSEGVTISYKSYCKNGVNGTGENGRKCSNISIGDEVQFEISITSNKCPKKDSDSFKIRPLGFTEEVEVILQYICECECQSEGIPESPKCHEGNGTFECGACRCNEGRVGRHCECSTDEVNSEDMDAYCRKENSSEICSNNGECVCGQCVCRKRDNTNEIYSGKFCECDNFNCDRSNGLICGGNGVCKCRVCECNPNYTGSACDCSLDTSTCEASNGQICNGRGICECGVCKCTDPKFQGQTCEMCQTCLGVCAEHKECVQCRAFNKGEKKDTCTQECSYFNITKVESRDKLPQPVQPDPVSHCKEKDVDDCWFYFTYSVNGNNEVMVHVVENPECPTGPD
Chain of recombinant human integrin alpha-v/beta-5 (P06756 31-1048, chain 1 of 2): as the sequence (P06756 31-1048, chain 1 of 2) above
Chain of recombinant human integrin alpha-v/beta-5 (P18084 24-719, chain 2 of 2): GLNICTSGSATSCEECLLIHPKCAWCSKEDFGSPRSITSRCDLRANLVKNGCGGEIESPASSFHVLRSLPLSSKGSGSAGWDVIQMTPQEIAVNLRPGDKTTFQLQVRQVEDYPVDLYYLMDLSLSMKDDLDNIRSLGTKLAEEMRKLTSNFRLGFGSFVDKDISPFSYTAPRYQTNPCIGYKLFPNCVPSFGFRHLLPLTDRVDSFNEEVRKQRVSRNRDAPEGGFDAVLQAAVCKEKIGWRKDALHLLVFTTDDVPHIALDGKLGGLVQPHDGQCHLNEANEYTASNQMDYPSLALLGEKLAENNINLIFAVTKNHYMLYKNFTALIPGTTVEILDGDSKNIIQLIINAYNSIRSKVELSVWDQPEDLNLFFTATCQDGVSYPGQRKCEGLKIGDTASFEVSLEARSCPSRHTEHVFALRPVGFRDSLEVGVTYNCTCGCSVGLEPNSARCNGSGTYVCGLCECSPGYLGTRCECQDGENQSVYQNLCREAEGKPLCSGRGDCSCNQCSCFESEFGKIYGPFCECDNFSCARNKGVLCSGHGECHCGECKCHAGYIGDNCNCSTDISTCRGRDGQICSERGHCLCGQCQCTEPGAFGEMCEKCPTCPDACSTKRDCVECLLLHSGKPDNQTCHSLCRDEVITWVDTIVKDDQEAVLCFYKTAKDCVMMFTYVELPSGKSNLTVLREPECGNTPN
Chain of recombinant human integrin alpha-v/beta-3 (P06756 31-1048, chain 1 of 2): as the sequence (P06756 31-1048, chain 1 of 2) above
Chain of recombinant human integrin alpha-v/beta-3 (P05106 27-718, chain 2 of 2): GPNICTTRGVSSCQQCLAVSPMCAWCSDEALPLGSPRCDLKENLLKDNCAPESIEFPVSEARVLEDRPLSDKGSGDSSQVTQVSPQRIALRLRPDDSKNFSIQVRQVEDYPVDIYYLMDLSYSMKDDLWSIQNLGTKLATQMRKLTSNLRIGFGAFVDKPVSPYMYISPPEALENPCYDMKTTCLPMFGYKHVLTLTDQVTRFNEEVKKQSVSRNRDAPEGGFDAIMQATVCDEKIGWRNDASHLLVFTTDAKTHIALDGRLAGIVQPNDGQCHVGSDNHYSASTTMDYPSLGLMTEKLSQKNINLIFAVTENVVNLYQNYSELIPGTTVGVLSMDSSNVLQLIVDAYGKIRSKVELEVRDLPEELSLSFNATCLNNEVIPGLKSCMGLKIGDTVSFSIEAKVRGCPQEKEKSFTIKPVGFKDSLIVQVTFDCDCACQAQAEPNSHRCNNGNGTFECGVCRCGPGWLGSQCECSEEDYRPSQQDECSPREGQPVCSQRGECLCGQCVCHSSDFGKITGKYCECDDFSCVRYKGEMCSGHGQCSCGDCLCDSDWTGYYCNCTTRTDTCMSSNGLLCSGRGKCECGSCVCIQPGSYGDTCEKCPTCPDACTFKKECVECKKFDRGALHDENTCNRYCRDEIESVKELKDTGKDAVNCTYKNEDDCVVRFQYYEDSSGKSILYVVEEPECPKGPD

B1: SGN-B6A (h2A2 conjugated to the vedotin drug-linker) (antibody, V domains shown)
VH: QFQLVQSGAEVKKPGASVKVSCKASGYSFTDYNVNWVRQAPGQGLEWIGVINPKYGTTRYNQKFKGRATLTVDKSTSTAYMELSSLRSEDTAVYYCTRGLNAWDYWGQGTLVTVSS
VL: DIQMTQSPSSLSASVGDRVTITCGASENIYGALNWYQQKPGKAPKLLIYGATNLEDGVPSRFSGSGSGRDYTFTISSLQPEDIATYYCQNVLTTPYTFGQGTKLEIK
On to B1, for which the binding result in assay [1], in assay [2], in assay [3] and in assay [4] was “no binding” in each case. For the same molecule, in assay [5], the EC50 turned out to be 900 pM.

B2: h2A2 (humanized 2A2 anti-integrin beta-6 antibody) (antibody, V domains shown)
VH: B1 VH
VL: B1 VL
On to B2, for which the binding result in assay [1], in assay [2], in assay [3] and in assay [4] was “no binding” throughout. Besides, the EC50 in assay [5] came out at 700 pM; in assay [6], 300 pM.

One may read the EC50 as the midpoint of the concentration-response curve.
